# Reference: the nanobody polyreactivity screen of Harvey et al. (2022)
# Assay: yeast display, Sf9 membrane polyspecificity reagent, FACS + sequencing; frameworks hold sequencing errors
# Method in brief: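 A synthetic nanobody library was expressed on Saccharomyces cerevisiae BJ5465 by galactose induction for 36–48 hours. The library was stained for 1 hour at 4 °C with 10% biotinylated, detergent-solubilized Sf9 membrane reagent and enriched with streptavidin microbeads before FACS. Low and high (top ~1%) gates were set on anti-HA fluorescence for expression and streptavidin fluorescence for reagent binding, and each polyreactivity label reflects the gate of origin.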
row,Sequence,polyreactivity (PSR sort gate)
1,QVQLVESGGGLVQAGGSLRLSCAASGSIFNRYAMGWYRQAPGKEREFVARISKRGGGTYYADSVKGRFTISRDNAKNTVYLQMNSLKPEDTAGYYCNAGVPSAMDYWGQGTQVTVSS,high polyreactivity
2,QVQLVESGGGLVQAGGSLRLSCAASGSIFNRYTMGWYRPAHGKQRELVAAISRGGITYYADSVKGRFTISRDNAMNTVYLQMNSLKPEDSAVYYCAADGFTRWGRYDYWGQGTQVTVSS,high polyreactivity
3,QVQLVESGGGLVQAGGSLRLSCAASGSIFNRYTMGWYRQAPGKEREFVAAIRNSGSRTYYADSVKRRFTISRDNAKNTVYLQMNSLKPEDTAVYYCAADGPLNSSESYYWGQGTQVTVSS,low polyreactivity
4,QVQLVESGGGLVQAGGSLRLSCAASGSIFNSNAMGWYRQAPGKERELVAVISWSDGSTRYADSVKGRFTISRDNAKNTVYLQMNSLKPEDTAVYYCNADLVYYYRQEVDYWGQGTEVTVSS,low polyreactivity
5,QVQLVESGGGLVQAGGSLRLSCAASGSIFNSNAMGWYRQAPGTERELDAGISNIGGSTYYADSVKGRFTISRDYAKNTVYLQMNSLKPEDTAVYFCNADRLQPNRYYYWGQGTQVTVSS,high polyreactivity
6,QVQLVESGGGLVQAGGSLRLSCAASGSIFNSYAMGWYIQAPGKERELFADITSSGGSTYYADSVKGRFTISRDNAKNTVYLQMNCLKPEDTAVYYCAASSPAFYGLRYNYWGQGTQVTVSS,low polyreactivity
7,QVQLVESGGGLVQAGGSLRLSCAASGSIFNTYAMGWYRQAPGKEREFVASISRSGGSTRYADSVKGRFTISRDNAKNTVYLQMNSLKPEDTAVYYCAARVPRGHVTYDYWGQGTQVTVSS,high polyreactivity
8,QVQLVESGGGLVQAGGSLRLSCAASGSIFNVYVMGWYRQAPGKERELVASITWTTGSTYADSVKGRFTISRDNAKNTVYLQMNSLKPEDTAVYYCNAEFPEDTSDDYWGQGTQVTVSS,low polyreactivity
9,QVQLVESGGGLVQAGGSLRLSCAASGSIFNWYAMGWYIQAPGKERELVAAISSSGSTNYADSVKGRFTISRDNAKNTVYLQMNSLKPEDTEVYYCNADEYYLNNYNYGYWGQGTQVTVSS,low polyreactivity
10,QVQLVESGGGLVQAGGSLRLSCAASGSIFNWYAMGWYRKAPGKERELVAAIRSGGNTKYADSVKGRFTISRDNAKNTVYLQMTSLKPEDTAVYYCAAGVYHRRLEYYYWGQGSQVTVSS,low polyreactivity
11,QVQLVESGGGLVQAGGSLRLSCAASGSIFNYNAMGWYRQAPGKERELVAAISSGGSTNYADSVKGRFTISRDNAKNTVYLQMNSLKPEDTAVYYCAKRGKQYRKMNYWGQGTQVTVSS,high polyreactivity
12,QVQLVESGGGLVQAGGSLRLSCAASGSIFNYNDMGWYRQAPGKERELVAAIDSSGTSTYYADSVKGRFTISRDNAKNTVYLQMNSLKPEDTAVYYCNADSSLGFGYWGQGTQVTVSS,low polyreactivity
13,QVQLVESGGGLVQAGGSLRLSCAASGSIFNYYAMGWYRQAPGKERELVAAITTSGGRTYYADSVKGRFTISRDNAKNTVYLQMNSLKPEDTAVYYCAARGYGRRAYVYRYDYWGQGTQVTVSS,high polyreactivity
14,QVQLVESGGGLVQAGGSLRLSCAASGSIFNYYDMGWYRQAPGKERELVAAIDLTGGTTYYADSVKGRFTISRDNAKNTVYLQMNSLKPEDTAVYYCAAQYIRSSWWGYDYWGQGTQVTVSS,low polyreactivity
15,QVQLVESGGGLVQAGGSLRLSCAASGSIFPAYAMGWYRQAPGKERELVAAITFSGGRTYYADSVKGRFTISRDNAKNTVYLQMNSLKPEDTAVYYCAAYGAPSGTGAKYGYWGQGTQVTVSS,low polyreactivity
16,QVQLVESGGGLVQAGGSLRLSCAASGSIFPAYAMGWYRQAPGKERELVAAITRGGRTNYADSVKGRFTISRDNAKNSVYLQMNSLKPEDTAVYYCAKAVQGKYGYWGQGTQVTVSS,high polyreactivity
17,QVQLVESGGGLVQAGGSLRLSCAASGSIFPDNAMGWYRQAPGKERELVAAISLSGGRTYYADSVKGRFTISRDNAKNTVYLQMNSLKPEDTAVYYCAAKQRPKSYGPGHYYWGQGTQVTVSS,high polyreactivity
18,QVQLVESGGGLVQAGGSLRLSCAASGSIFPDYAMGWYRQAPGKERELVAAITWRDDSSYYADSVKGRFTISRDNAKNTVYLQMNSLKPEDTAVYYCNASALDPLYAKDDYWGQGTQVTVSS,low polyreactivity
19,QVQLVESGGGLVQAGGSLRLSCAASGSIFPFYAMGWYRQAPGKERELVAAISYSGGRTYYADSVKGRFTISRDNAKNTVYLQMNSLKPEDTAVYYCAVDSGQKRRDYWGQGTQVTVSS,high polyreactivity
20,QVQLVESGGGLVQAGGSLRLSCAASGSIFPGYAMGWSRPAPGKERELVAAISRDGSTNYADSVKGRFTISRDNAKITVYLQMNSLKPEDTAVYYCARRNPLGGNEHDYWGQGTQVTVSS,low polyreactivity
21,QVQLVESGGGLVQAGGSLRLSCAASGSIFPGYAMGWYRQAPGKERELVAGITWSDARTYYADSVKGLFTISRDNAKNTVYLQMNSLKPEDTAVYYCAADYYYYERDYWGQGTQVTVSS,low polyreactivity
22,QVQLVESGGGLVQAGGSLRLSCAASGSIFPIYAMGWSRQPPGKESELVAPISRGGSTNYADSVKGRFTISRDNAKNTVYLQMNSLKPEDTAVYYCAAQSRVFSTWGSTGEYYYWGQGTQVTVSS,low polyreactivity

row,Sequence,polyreactivity (PSR sort gate)
1,QVQLVESGGGLVQAGGSLRLSCAASGSIFPKYAMGWYRQAPGKERELVAGISRSGGITHYADSVKGRFTISRDNAKNTVYLQMNSLKPEDTAVYYCAALWARALSYYYWGQGTQVTVSS,high polyreactivity
2,QVQLVESGGGLVQAGGSLRLSCAASGSIFPQNAMAWYRQAPGKERELVASISSGGRTNYADSVKGRFTISRDNAKNTVYLQMNSLKPEDTAVYYCNARYRGYYGPKTHGVTYYYWGQGTQVTVSS,low polyreactivity
3,QVQLVESGGGLVQAGGSLRLSCAASGSIFPRYAMGWYRQAPGKERELVAGITSGGITYYADSVKGRFTISRDNAKNTVYLQLNSLKPEDTAVYYCAAVYYLVPGNYWGQGTQVTVSS,high polyreactivity
4,QVQLVESGGGLVQAGGSLRLSCAASGSIFPSYAIGWYRQAPGKERELVATIGRGGTTNYADSVKGRFTISRDNAKNTVYLQMNSLKPEDTSVYYCNAERIWRYKYGYDYWGQGTQVTVSS,high polyreactivity
5,QVQLVESGGGLVQAGGSLRLSCAASGSIFPSYAMGWFRQAPRKERELVAAISRSAGSTYYADSVKGRFTISRDNAKNTVYLQMNSLKPEDTAVYYCAADGYSSRYRFDYWGQGTQVTVSS,low polyreactivity
6,QVQLVESGGGLVQAGGSLRLSCAASGSIFPSYAMGWYRPAPGTERELVAAISVSGGRTSYADSVKGRFTISRDNAKNTVYLQMNSLKPEDTAVYYCAVRSWSGYGLYNYWAQGTQVTVSS,high polyreactivity
7,QVQLVESGGGLVQAGGSLRLSCAASGSIFPSYAMGWYRQAPGKERELVAAISRSAGSTYYADSVKGRFTISRDNAKNTVYLQMNSLKPEDTAVYYCAAEGYSSRYRYDYWGQGTQVTVSS,low polyreactivity
8,QVQLVESGGGLVQAGGSLRLSCAASGSIFPSYARGWYRQAPGKERELVAAINWDGGSTFYADSVKGRFTISRDNAKNTVSLQMNSLKPEDTAVYYCAAPDNYGGVGGITFWRMDYWGQGTQVTVSS,low polyreactivity
9,QVQLVESGGGLVQAGGSLRLSCAASGSIFPTNAMGWYRQAPGKERELVAAITSTAGSTYYADSVKGRFTISRDNAKNSVYLQMNSLKPEDTAVYYCAATYKVGVKSWYDYWGQGTQVTVSS,high polyreactivity
10,QVQLVESGGGLVQAGGSLRLSCAASGSIFPTYAMGWYRQAPGKERELVAAIRSGSNTYYADSLKGRFTISRDNAKNTDYLQMNCLKPEDTAVYYCNVGPQRKYPGRRTVPFGYWGQGTQVTVSS,low polyreactivity
11,QVQLVESGGGLVQAGGSLRLSCAASGSIFPVYAMGWYRQAPGKERELVAAISSRGGRTYYADSVKGRFTISRDNAKNTVYLQMNSLKPEDTAVYYCAAVPYPSYYDTGYDYWGQGTQVTVSS,low polyreactivity
12,QVQLVESGGGLVQAGGSLRLSCAASGSIFPVYAMGWYRQAPGKERELVATITGSGDSTYADSVKGRFTISRDNAKNTVYLQMNSLKPEDTAVYYCAATTDRAEDDDNIGGYWGQGTQVTVSS,low polyreactivity
13,QVQLVESGGGLVQAGGSLRLSCAASGSIFPVYAMGWYRQSPGKERELVADITYTTGSTYYADSVKGRFTISRDNAKNTVYLQMNSLKPEDSAVYYCAKDFGFQSDSWGQGTQVTVSS,low polyreactivity
14,QVQLVESGGGLVQAGGSLRLSCAASGSIFPVYTMGWYRQAPGKERELVADIDSGGSTNYADSVKGRFTISRDNAKNTVYLQMNSLKPEVTAVYDCAADYYYYFYSLYIDPYAFDYWGLGTQVTVSS,low polyreactivity
15,QVQLVESGGGLVQAGGSLRLSCAASGSIFPWYAMGWYRQAPGKERELVAAITISGGSTHYADSEKGRFTISRDTAKNTVYLQLKSLKPEDTAVYYCAADFLPQSYNCYDYWGQGTQVTVSS,low polyreactivity
16,QVQLVESGGGLVQAGGSLRLSCAASGSIFPWYTMGWYRQAPGKEREFVASISSSASDTYYADSVKGRFTISRDNAKNTVYLQMNSLKPEDTAVYYCAARAYYRYWHGNYRHYSFDYWGQGTQVTVSS,high polyreactivity
17,QVQLVESGGGLVQAGGSLRLSCAASGSIFPWYVMGWYRQAPGKERELVAAISWNGGITYADSVKGRFTISRDNAKNTVYLQMNSLKPEDTGVYYCAAYYITYSYIEYDYWGQGTQVSVSS,high polyreactivity
18,QVQLVESGGGLVQAGGSLRLSCAASGSIFPYNAMGWYRQAPGKERELVAAIRFGGGSTYYSDSVKGRFTISRDNAKNTVYLQMNSLKPEDTAVYYCAAQVLQSAYLPFRFGYYYWGLGTQVTVSS,low polyreactivity
19,QVQLVESGGGLVQAGGSLRLSCAASGSIFPYNAMGWYRQAPGKERELVAAITQSGGSTYYADSVKGRFTISRDNAKNTVYLQMNSLQPEDTAVYYCAADDYGPEGDYWGQGTQVTVSS,low polyreactivity
20,QVQLVESGGGLVQAGGSLRLSCAASGSIFPYNDMGWYRQAPGKERELVAAISDSAGSTYYADSVKGRFTISRDNAKNTVYLQMNSLKPEDTAVYYCAADSWDSQVVSYEYWGQGTQVTVSS,low polyreactivity
21,QVQLVESGGGLVQAGGSLRLSCAASGSIFPYNVMGWYRPAPGQERELVAANTTGGRTNYADSVKGRFTISRDNAKNTVYLQMNSLKPEDTAVYYCAARYGYYDSRRWYYYSGQGTQVTVSS,high polyreactivity
